# Laboratory results taken from article PMC9181312.
# Biological target: Human ACE2-hIgG1Fc (human) (UniProt Q9BYF1)
# Experiment: SPR
# Human ACE2-hIgG1Fc (human), sequence (Q9BYF1 18-740): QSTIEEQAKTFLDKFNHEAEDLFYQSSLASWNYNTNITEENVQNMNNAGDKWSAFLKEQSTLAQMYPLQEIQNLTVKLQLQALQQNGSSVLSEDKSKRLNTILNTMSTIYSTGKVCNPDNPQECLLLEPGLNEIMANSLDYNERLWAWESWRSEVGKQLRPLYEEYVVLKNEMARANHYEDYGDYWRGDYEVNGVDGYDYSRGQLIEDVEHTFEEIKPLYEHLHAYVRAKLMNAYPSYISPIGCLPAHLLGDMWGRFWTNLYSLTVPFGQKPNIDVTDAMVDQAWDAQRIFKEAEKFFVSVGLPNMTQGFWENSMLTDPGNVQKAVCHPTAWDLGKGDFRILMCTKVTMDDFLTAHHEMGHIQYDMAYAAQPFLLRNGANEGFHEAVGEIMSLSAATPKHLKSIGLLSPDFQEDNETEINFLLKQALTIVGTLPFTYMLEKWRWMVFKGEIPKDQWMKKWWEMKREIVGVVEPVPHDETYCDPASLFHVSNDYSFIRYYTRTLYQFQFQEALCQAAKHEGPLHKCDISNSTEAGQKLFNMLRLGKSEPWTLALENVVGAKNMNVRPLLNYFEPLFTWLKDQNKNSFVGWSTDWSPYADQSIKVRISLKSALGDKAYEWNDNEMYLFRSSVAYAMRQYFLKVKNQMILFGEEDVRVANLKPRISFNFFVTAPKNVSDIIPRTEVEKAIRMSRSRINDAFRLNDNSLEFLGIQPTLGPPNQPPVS
substance,measurement,value
Wuhan RBD,Kd,7.3 nM
same,koff,0.0051 s⁻¹
